For this assay, the system named is rumen fluid. The assay is described as follows: in vitro ruminal fermentation, 22 muramidases, 12 h (Example 4). Also noted: species or system cow; DMd: unit not given here. Particulars: muramidase 0.20 mg/40 ml; for Acetate / Butyrate / Propionate: VFA production after 12 h; for DMd: dry matter digestibility after 12 h of ruminal fermentation in vitro; for Total VFA: sum of VFA after 12 h; for Carbon in VFA: summed carbon in VFA after 12 h. Here is the method:
The trial was performed by Alimetrics (Alimetrics Ltd, Koskelontie 19B, FIN-02920 Espoo, Finland) using 120 mL serum bottles as fermentation vessels. The fermentation preparation and procedure is presented in Kettunen et al., (Kettunen H., J. Vuorenmaa, D. Gaffney and J. Apajalahti (2016): Yeast hydrolysate product enhances ruminal fermentation in vitro. J. App. Anim. Nutr., Vol. 4; e1; page 1 of 7). In short, the method is as follows: All bottles were initially filled with 1 g of feed DM composed from corn silage, barley meal, soybean meal, at the amounts of 0.5, 0.4, and 0.1 g DM, respectively. Subsequently, the bottles were flushed with CO2 passed through a hot copper catalyst for O2 scavenging and sealed with thick butyl rubber stopper. Anaerobic, reduced and temperature adjusted (+38° C.) artificial saliva buffer solution (Modified from Agriculture Handbook No. 379, (USDA, Washington, D.C., 1975), volume of 37.65 ml), freshly strained rumen fluid (5% inoculum; volume of 2 ml), and test compounds (volume of 0.35 ml) was introduced into the fermentation vessels under the oxygen-free CO2 flow. Following rumen fluid was collected from a ruminal cannulated cow. Rumen fluid was pumped directly from the rumen into a preheated thermos and immediately closed, and transported to Alimetrics laboratory. The rumen fluid was used for inoculation within 2 hours of harvest. To ensure that both liquid and particle associated ruminal microbes were present in the inoculum both fractions were obtained. Liquid and solid fractions were strained through a metal mesh (grid size 3×3 mm) under anaerobic conditions prior to buffer dilution.
Following inoculation with rumen fluid, buffer and test solution, the vessels were sealed with the butyl rubber septum's. All fermentation vessels were inoculated in random order to prevent the possible block effects. Inoculation time for each fermentation vessel was registered and was taken into account op on each sampling to ensure that duration of the fermentation was the same for each sample. The fermentation was continued for 12 h in a gyratory shaker at +38° C. Fermentation gas produced was measured and relived by collection of the fermentation gas in syringes at time 3, 6, 9, and 12 h. Feed residues were measured after 12 h fermentation.
The trial design was a dosage response, complete randomized design with 27 treatments using 145 fermentation vessels according to table 5. […] Negative control was supplemented with the same buffer solution that was used for diluting the enzymes to reach the same liquid volume as the supplemented fermentation vessels. The ionophore Monensin (Monensin sodium salt, 90-95% TLC (Sigma Aldrich; Product code: M5273-1G)) was chosen as a positive control because it is a ruminants feed additive that affects volatile fatty acids (VFA) production.
Liquid Samples Obtained at 12 h were Analyzed for the Concentration of VFA (Acetate, Propionate, butyrate, and valerate) by GC-FID using a glass column packed with 80/120 carbopack B-DA/4% Carbowax stationary and helium as a carrier gas (Kettunen H., J. Vuorenmaa, T. Rinttilä, H. Grönberg, E. Valkonen and J. Apajalahti (2015): Natural resin acid-enriched composition as a modulator of intestinal microbiota and performance enhancer in broiler chicken. J. App. Anim. Nutr., Vol. 3; e2; page 1 of 9).
Digestibility of dry matter was quantified by determination of dry matter in the original feed matrix and in all fermentation vessels after 12 h of fermentation. Feed residues from the fermentation vessels were obtained by filtration tared sintered glass filters, washed with water and dried at 105° C. for 12 hours. Finally, the glass filters are weighed for the residual feed dry matter.
Dry matter digestibility (DMd) was calculated at the ratio between feed residues after end fermentation and the dry matter fed. […]

B1: N: mature muramidase polypeptide from Ovatospora brasiliensis, GH25; N in Example 4 (protein, listed as Ovatospora brasiliensis)
chain: FDISNWQPAGTVDFAAAYSSGARFVIIKATEGTSYIDPSFSSHYTKATNAGFIRGGYHFAHPGETTGAAEADYFIAHGGGWSNDGITLPGMLDLESENKGQCWGLSTSAMVSWIKSFSDRYKSRTGVYPLIYTNPSWWSACTGNSNAFVNTNPLVLARYASAPGTIPGGWPYQTIWQNSDSYAYGGDSDIFNGSLDRLKALAKGS
B1: the Acetate is on record as 49.3 mmol/L, the Butyrate is listed as 7.2 mmol/L, the Propionate stood at 40.8 mmol/L and the DMd is 0.59. Moreover, the “Total VFA” value turned out to be 98 mmol/L and the “Carbon in VFA” value is 253 mmol/L.

B2: T: mature muramidase polypeptide from Chaetomium sp., novel MUR polypeptide; T in Example 4 (protein)
chain: YHIKGSIVNCRAGPGTSHAVKKTYAKGQNVQISCQTTGNIIHGNNIWDLTQDGCYVADYYVKTGTDGFVTDKCSSSGNSGVSGTSTSSVGGAAGPMKDDYPYKSNCEGTDPWLYFKCQCTSFVAWRINERLGIKFHNQYKGVNWGDANTWDDAAKRTGVTVNKTPKPGCVAQTDKGTWGHVAWVAAVGDETVTIEEYNYGGKERYGTRTVPKGEFDYIHVKN
modifications: Chaetomium sp
Molecule B2 returned an Acetate of 53.6 mmol/L, a Butyrate of 7.8 mmol/L, a Propionate of 45.1 mmol/L and a DMd of 0.57. For the same molecule, the “Total VFA” value was 107 mmol/L and the “Carbon in VFA” value was determined as 277 mmol/L.

B3: S: mature muramidase polypeptide from Aspergffius sp., novel MUR polypeptide; S in Example 4 (protein, listed as Aspergillus sp.)
chain: YPVKADVHCRSGPGTSYSIVKTYSTGTQISVSCQAAGTDVDGDQLWDKTSDGCYVSDYYVSTGSSNYVTSHCPTEYAIKTDVNCRSGPGTNYGIVKTYNQGVMVSLNCQASGTDVDGDSLWDKTSDGCYVSDYYVATGSSSYVTSACSGSSSSGGGGSSSSGNLPSLDSTQSAHARAIIGEAKSQNVGRQGCLAGIATALVESSMLMYANSNVAASLSYPHDAVGSDYDSVGLFQQRVSIYTNLAADMDAAQSAGQFFDEMKKVSGWETMNVGDLCQEVQRSAYPDRYAGEVSTAESICSAGGL
B3 came in with an Acetate of 49.4 mmol/L, a Butyrate of 7.1 mmol/L, a Propionate of 41.2 mmol/L and a DMd of 0.58. Moreover, the “Total VFA” value was found to be 98 mmol/L and the “Carbon in VFA” value came to 254 mmol/L.

B4: U: mature muramidase polypeptide from Zopfiella Sp., novel MUR polypeptide; U in Example 4 (protein)
chain: YPIKGDTVNCRSGPGTSFAVKKTYAKGKDIKITCQTTGTSVNGNNIWDKTSDGCYVADYYVKTGKDGFVTDKCDASSVPKPPATKIPGPVTNDYPYKSSCGGVDPWNYYKCQCTSFVAWRVNKRLGKKFHNRYKGHAWGNANQWDEAAKQSGVKVNSTPKPGCIAQTNAGSYGHVAWVTAVGKDTVTIEEYNWNKKLGYGTRTVAKSKFNYIHLEP
modifications: Zopfiella sp
The molecule B4 yielded an Acetate of 49.1 mmol/L, a Butyrate of 7.1 mmol/L, a Propionate of 40.5 mmol/L and a DMd of 0.60. Moreover, the “Total VFA” value is 97 mmol/L and the “Carbon in VFA” value came out at 251 mmol/L.

The values are drawn from patent US20210037856A1, “Ruminant Feed Composition Comprising A Muramidase” (Novozymes A/S, priority 2018, published 2021).
